Data as given in the supplement of paper PMC10724198.
± gives the standard deviation of the averaged measurements.

Tested on: Saccharomyces cerevisiae
Test: protein stability index of tFT-peptide fusion (C-terminal peptide) (PSI (0-1 scale)); higher = more stable (slower turnover)
Settings: temperature: 30 C
Experimental: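 MPS profiling in S. cerevisiae of the yeast C-terminome library: the last 12 aa of each annotated ORF are fused to the C-terminus of a sfGFP-mCherry timer, after a GGGS linker. Cells are FACS-sorted into 8 mCherry/sfGFP bins and deep-sequenced. PSI runs from 0 (unstable) to 1 (stable); wild type and das1Δ backgrounds, two technical replicates each.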

[1] = genetic background: das1 deletion

KLVDVRKVYYSS [MRPS5 C-terminal 12 aa] gave a protein stability index [1] of 0.7071 ± 0.0029 and a protein stability index (genetic background: wild type) of 0.6234 ± 0.0043.

Work on SGSGVHVIKRVG [ESS1 C-terminal 12 aa] yielded a protein stability index [1] of 0.701 ± 0.0075 and a protein stability index (genetic background: wild type) of 0.65 ± 0.019.

Sequence LNLPWKRKKTTI [YCR101C C-terminal 12 aa] has a protein stability index [1] of 0.707 ± 0.017 and a protein stability index (genetic background: wild type) of 0.686 ± 0.019.

With “FKSTPIIYSNVI [YER006C-A C-terminal 12 aa]” the protein stability index [1] was 0.724 ± 0.027 and the protein stability index (genetic background: wild type) was 0.642 ± 0.0074.

VMLLFIFLIMKL [PEP12 C-terminal 12 aa] showed a protein stability index [1] of 0.186 ± 0.023 and a protein stability index (genetic background: wild type) of 0.198 ± 0.01.

“PVRHQTGMHFCI [YHR032W-A C-terminal 12 aa]” showed a protein stability index [1] of 0.721 ± 0.009 and a protein stability index (genetic background: wild type) of 0.682 ± 0.029.

For LADHLMEKYLSI [TFC4 C-terminal 12 aa], the protein stability index [1] was 0.701 ± 0.025 and the protein stability index (genetic background: wild type) was 0.658 ± 0.01.

TKNLVPGFSDLM [SEC61 C-terminal 12 aa] gave a protein stability index [1] of 0.708 ± 0.012 and a protein stability index (genetic background: wild type) of 0.676 ± 0.011.

For GRVDFQSTSKFT [AIM24 C-terminal 12 aa], the protein stability index [1] was 0.702 ± 0.036 and the protein stability index (genetic background: wild type) was 0.7036 ± 0.0061.

In the case of LEELDIEEEYSD [ACL4 C-terminal 12 aa], the protein stability index [1] is reported as 0.687 ± 0.059 and the protein stability index (genetic background: wild type) is reported as 0.673 ± 0.0086.

For VMLNSVSISLNK [COG5 C-terminal 12 aa], the protein stability index [1] was 0.711 ± 0.014 and the protein stability index (genetic background: wild type) was 0.6577 ± 0.00017.

With “PLNDQVCPNSPL [YLR154W-F C-terminal 12 aa]” the protein stability index [1] was 0.7273 ± 0.0053 and the protein stability index (genetic background: wild type) was 0.694 ± 0.033.

NGANIFITSALT [YGL176C C-terminal 12 aa] gave a protein stability index [1] of 0.691 ± 0.004 and a protein stability index (genetic background: wild type) of 0.684 ± 0.016.

For EGPVTIILDSDQ [DTD1 C-terminal 12 aa], the protein stability index [1] was 0.701 ± 0.0098 and the protein stability index (genetic background: wild type) was 0.7015 ± 0.0042.

LAQQLQQDSEAS [SWC5 C-terminal 12 aa] showed a protein stability index [1] of 0.699 ± 0.039 and a protein stability index (genetic background: wild type) of 0.701 ± 0.0092.

TIAIGKIVKIAE [SUP35 C-terminal 12 aa] was tested, and the protein stability index [1] was 0.7085 ± 0.0052 and the protein stability index (genetic background: wild type) was 0.685 ± 0.013.

Work on TSNGGVEETMKM [ARX1 C-terminal 12 aa] yielded a protein stability index [1] of 0.6815 ± 0.00071 and a protein stability index (genetic background: wild type) of 0.676 ± 0.025.

Work on SGGWDRSIKLWN [PRP4 C-terminal 12 aa] yielded a protein stability index [1] of 0.711 ± 0.01 and a protein stability index (genetic background: wild type) of 0.681 ± 0.026.

LDFAKRKLKKKQ [TFB2 C-terminal 12 aa] gave a protein stability index [1] of 0.714 ± 0.015 and a protein stability index (genetic background: wild type) of 0.622 ± 0.034.

In the case of KQYIEPESVKPN [ABD1 C-terminal 12 aa], the protein stability index [1] is reported as 0.6996 ± 0.0034 and the protein stability index (genetic background: wild type) is reported as 0.722 ± 0.051.

Work on YGNWSKTVADLN [BAT1 C-terminal 12 aa] yielded a protein stability index [1] of 0.692 ± 0.022 and a protein stability index (genetic background: wild type) of 0.687 ± 0.022.

Work on MLQYLVFVYIEK [YCR085W C-terminal 12 aa] yielded a protein stability index [1] of 0.182 ± 0.0095 and a protein stability index (genetic background: wild type) of 0.21 ± 0.016.

RLLNLQKVIYST [LDB18 C-terminal 12 aa] was tested, and the protein stability index [1] was 0.662 ± 0.013 and the protein stability index (genetic background: wild type) was 0.493 ± 0.064.

In the case of HENSKCFTHYLI [AFR1 C-terminal 12 aa], the protein stability index [1] is reported as 0.684 ± 0.035 and the protein stability index (genetic background: wild type) is reported as 0.6605 ± 0.0065.

Work on LETLKKKKKRNN [MAK5 C-terminal 12 aa] yielded a protein stability index [1] of 0.711 ± 0.014 and a protein stability index (genetic background: wild type) of 0.66348 ± 0.00034.

With TYNSYTEPEELR [FMP27 C-terminal 12 aa] the protein stability index [1] was 0.692 ± 0.025 and the protein stability index (genetic background: wild type) was 0.716 ± 0.05.

With VSGFKDEVLETV [RPS1B C-terminal 12 aa] the protein stability index [1] was 0.679 ± 0.037 and the protein stability index (genetic background: wild type) was 0.708 ± 0.029.

Sequence VESPTLFCVCTQ [YPR170C C-terminal 12 aa] has a protein stability index [1] of 0.6115 ± 0.0024 and a protein stability index (genetic background: wild type) of 0.66 ± 0.028.

NLSEAIHDNNGS [NNK1 C-terminal 12 aa] was tested, and the protein stability index [1] was 0.717 ± 0.019 and the protein stability index (genetic background: wild type) was 0.7091 ± 0.00097.

Sequence KKHSMKSRFKPY [YNL035C C-terminal 12 aa] has a protein stability index [1] of 0.696 ± 0.029 and a protein stability index (genetic background: wild type) of 0.712 ± 0.0099.

Sequence KVFDRSGIVLEK [QRI1 C-terminal 12 aa] has a protein stability index [1] of 0.71 ± 0.013 and a protein stability index (genetic background: wild type) of 0.701 ± 0.016.

“FLIWRKKVSRNK [YOR329W-A C-terminal 12 aa]” was tested, and the protein stability index [1] was 0.73 ± 0.054 and the protein stability index (genetic background: wild type) was 0.727 ± 0.11.

With SNGFKEWRKSLK [RAI1 C-terminal 12 aa] the protein stability index [1] was 0.6824 ± 0.0012 and the protein stability index (genetic background: wild type) was 0.67 ± 0.02.

In the case of SASGKKKINKNN [ELO1 C-terminal 12 aa], the protein stability index [1] is reported as 0.6991 ± 0.0036 and the protein stability index (genetic background: wild type) is reported as 0.723 ± 0.042.

Sequence “EALPPCLQIFRP [YDR354C-A C-terminal 12 aa]” has a protein stability index [1] of 0.701 ± 0.0091 and a protein stability index (genetic background: wild type) of 0.6739 ± 0.0039.

In the case of IYKLEYYLLTMQ [YOR199W C-terminal 12 aa], the protein stability index [1] is reported as 0.574 ± 0.011 and the protein stability index (genetic background: wild type) is reported as 0.526 ± 0.034.

With LRRIAKKHHKKK [SPB1 C-terminal 12 aa] the protein stability index [1] was 0.699 ± 0.044 and the protein stability index (genetic background: wild type) was 0.722 ± 0.034.

SMALRTVSILEN [YGL152C C-terminal 12 aa] was tested, and the protein stability index [1] was 0.683 ± 0.011 and the protein stability index (genetic background: wild type) was 0.649 ± 0.025.

In the case of INIQQFAALLSK [CMD1 C-terminal 12 aa], the protein stability index [1] is reported as 0.66 ± 0.0085 and the protein stability index (genetic background: wild type) is reported as 0.68 ± 0.0055.

WHKSQLEDMNGY [YHL012W C-terminal 12 aa] gave a protein stability index [1] of 0.683 ± 0.005 and a protein stability index (genetic background: wild type) of 0.6568 ± 0.0052.

GIVYDFHKSDMY [LSM1 C-terminal 12 aa] gave a protein stability index [1] of 0.683 ± 0.036 and a protein stability index (genetic background: wild type) of 0.696 ± 0.043.
